Numbering of substitutions follows the chain as printed.
Assays:
[1] = molecular target: T1, extracellular domain (ECD) of human TrkA protein, N-terminal flag tag and C-terminal His tag (PHA) (human, UniProt P04629 33-423); assay: indirect ELISA on coated PHA (human TrkA ECD, 1 ug/mL), anti-mouse IgG-HRP, OD450
T1 construct: Made in 293-F cells and purified by IMAC; also called TrkA ECD protein; TrkA (ECD); not shown: flag tag at the N-terminus (after the signal peptide); His tag at the C-terminus
T1 sequence (P04629 33-423): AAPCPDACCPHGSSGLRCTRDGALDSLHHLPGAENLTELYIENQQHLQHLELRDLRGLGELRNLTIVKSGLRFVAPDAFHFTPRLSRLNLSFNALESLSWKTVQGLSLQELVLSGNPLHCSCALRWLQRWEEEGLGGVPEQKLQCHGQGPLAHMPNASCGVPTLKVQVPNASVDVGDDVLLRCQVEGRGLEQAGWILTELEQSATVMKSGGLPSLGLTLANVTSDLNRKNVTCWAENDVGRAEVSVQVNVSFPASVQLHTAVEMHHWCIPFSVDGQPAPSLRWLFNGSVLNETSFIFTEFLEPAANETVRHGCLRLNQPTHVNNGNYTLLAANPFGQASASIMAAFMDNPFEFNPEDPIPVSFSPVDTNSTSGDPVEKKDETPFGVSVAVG
Procedure: Hybridoma supernatants were initially screened with human TrkA by indirect ELISA. Briefly, purified PHA was diluted to a final concentration of 1 μg/mL in PBS buffer. 100 μL of the diluted antigen was added to each well of a 96-well plate, and incubated at 4° C. overnight. The plates were washed with PBST (PBS comprising 0.05% Tween-20, pH 7.4) for three times, then 200 μl/well of 2% bovine serum albumin (BSA) diluted in PBST was added and incubated at room temperature for 2 hours for blocking. The blocking solution was removed, and the plate was washed 3 times with 300 μl PBST. The diluted solutions of primary and secondary antibodies, along with substrate solution was prepared. 100 μl of diluted primary antibody was pipetted in each well and was incubated for 1 hour at room temperature. The content in the wells was removed and washed for 3 times with 300 μl PBST buffer. PBS was removed from the plates. 100 μl of diluted Peroxidase-AffiniPure Goat Anti-Mouse IgG was added in each well and incubated for 1 hour at 37° C. The content in the wells was removed and the wells were washed for 3 times with 300 μl PBST. 100 μl of TMB substrate solution was added to the wells. After sufficient color development, 100 μl of stop solution was added to the wells to terminate the reaction. Read the absorbance (OD: 450) of each well with a microplate reader and the data were analyzed.

[2] = molecular target: T2, human TrkA on CellSensor TrkA-NFAT-bla CHO-K1 cells (human, UniProt P04629 33-796); assay: FACS on CellSensor TrkA-NFAT-bla CHO-K1 cells (human TrkA), APC goat anti-mouse IgG
T2 construct: whole, on cells; Bought cell line; also called cells overexpressing human TrkA
T2 sequence (P04629 33-796 limits assumed, form in doubt): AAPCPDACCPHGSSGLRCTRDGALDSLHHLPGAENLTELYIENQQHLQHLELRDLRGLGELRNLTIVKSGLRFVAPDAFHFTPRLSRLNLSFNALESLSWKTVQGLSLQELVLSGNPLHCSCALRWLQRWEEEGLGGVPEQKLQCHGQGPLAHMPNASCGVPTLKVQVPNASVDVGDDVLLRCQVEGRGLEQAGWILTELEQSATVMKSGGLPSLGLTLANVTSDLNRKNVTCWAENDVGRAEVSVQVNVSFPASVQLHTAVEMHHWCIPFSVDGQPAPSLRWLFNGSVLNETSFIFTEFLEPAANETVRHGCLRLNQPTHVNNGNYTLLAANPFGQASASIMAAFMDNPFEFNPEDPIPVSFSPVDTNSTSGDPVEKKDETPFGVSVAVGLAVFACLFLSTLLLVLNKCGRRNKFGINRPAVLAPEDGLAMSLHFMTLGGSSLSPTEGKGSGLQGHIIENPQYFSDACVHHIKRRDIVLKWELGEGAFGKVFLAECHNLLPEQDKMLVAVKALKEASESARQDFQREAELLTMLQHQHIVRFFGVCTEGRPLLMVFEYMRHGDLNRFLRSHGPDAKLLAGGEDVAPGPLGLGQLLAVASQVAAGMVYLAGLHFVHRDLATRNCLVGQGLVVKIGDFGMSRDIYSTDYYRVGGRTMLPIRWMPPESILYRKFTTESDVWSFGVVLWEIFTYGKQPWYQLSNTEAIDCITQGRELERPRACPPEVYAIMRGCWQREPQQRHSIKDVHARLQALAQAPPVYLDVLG
Procedure: (§1) The ELISA-positive antibody producing clones were further verified by fluorescence-activated cell sorting (FACS) using a conventional method. Briefly, CellSensor® TrkA-NFAT-bla CHO-K1 cells (cells overexpressing human TrkA) were stained with anti-TrkA antibody in U-bottom 96-well plates. The cells were resuspended to 2×10⁶ cells/ml in ice cold PBS. The diluted solutions of primary and secondary antibodies were prepared, and 100 μl of the diluted primary antibody was added in each well, and incubated for 1 hours at 4° C. in the dark. The cells were washed for 2 times by centrifugation at 2500 rpm for 3 min and resuspended in ice cold PBS. The APC Goat anti-Mouse IgG was diluted in cold PBS at the […] and then the cells were resuspended in 100 μl of this solution. The cells were washed for 2 times by centrifugation at 2500 rpm for 3 min and resuspended in 100 μl ice cold PBS. The cell suspension was stored immediately at 4° C. in the dark. The cells were analyzed on the flow cytometer as soon as possible.

[3] = molecular target: T2, human TrkA on CellSensor TrkA-NFAT-bla …; assay: FACS on CellSensor TrkA-NFAT-bla CHO-K1 cells (human TrkA), APC goat anti-mouse IgG; y axis without label
Procedure: as §1

[4] = molecular target: T1, extracellular domain (ECD) of human …; assay: BLI (ForteBio)
[5] = molecular target: T1, extracellular domain (ECD) of human …; assay: affinity after affinity maturation; method not stated in Example 5
[6] = molecular target: T2, human TrkA on CellSensor TrkA-NFAT-bla …; assay: cell-based or functional assay
[7] = molecular target: T1, extracellular domain (ECD) of human …; assay: SPR (BIAcore T200), antibody on protein G chip, PHA 0.625-20 nM injected
Procedure: The binding kinetics and affinities of the humanized antibodies were determined using a BIAcoreT200™ SPR system. Approximately 30 RU of the humanized antibody was immobilized on a protein G sensor chip and serial 2-fold dilutions of the PHA (0.625-20 nM) in 1×HBS-EP+ buffer were injected over the antibody-bound surface at a flow rate of 30 μl/min.

[8] = molecular target: T1, extracellular domain (ECD) of human …; assay: BLI (Octet Red384), as in Example 4
Procedure: The bio-layer interferometry (BLI) method was used to determine the affinities of the antibodies, employing Octet Red384. Briefly, anti-human Fc-coated biosensor AHQ tips (ForteBio) were put into PBS with 0.1% w/v bovine serum albumin and 0.05% Tween-20 for a minimum of 10 min in the pre-wetting plate. The purified antibodies (100 nM in PBS with 0.1% bovine serum albumin and 0.05% Tween-20 (assay buffer)) were captured on AHQ biosensors (ForteBio) at a level of about 1 nm. The loaded biosensors were washed with an assay buffer to remove any unbound protein. Then, the association rates, dissociation rates and response were measured, using an antigen of 100 nM (in PBS with 0.1% bovine serum albumin and 0.05% Tween-20).
Two rounds of humanizations were further performed. […] In the second round, many other variants were further constructed (including several mutations in the CDR sequences). Quickchange based site-directed mutagenesis or overlap PCR were performed to create expression plasmid of new versions of 2nd round humanized antibodies. All recombinant antibodies were expressed and purified as described in Example 1, then measured antigen binding affinity using BLI technology with the Octet Red384 instrument as mentioned above. To compare the functional activity of humanized antibodies with chimeric antibodies, NFAT assay was also performed.

[9] = molecular target: T2, human TrkA on CellSensor TrkA-NFAT-bla …; assay: cell-based or functional assay; remark: listed apart in the source
[10] = molecular target: T2, human TrkA on CellSensor TrkA-NFAT-bla …; assay: cell-based or functional assay; remark: listed apart in the source

B1: muPHD50 (antibody, V domains shown)
VH: EVQLQQSGTVLARPGASVKMSCKASGYIFTSYWMHWVKQRPGQGLEWIGAIYPGDSDTNYNQKFKGKAKLTAVTSASTAYMELSSLTNEDSAVYYCTRYGNYAGYYHMDYWGQGTSVTVSS
VL: QIVLTQSPALMSASPGEKVTMTCSASSSVSYIYWYQQKPRSSPKPWIYLTSNLASGVPARFSGSGSGTSYSLTISSMEAEDAATYYCQQWSSNPLTFGAGTKLELK
notes: Mouse hybridoma monoclonal antibody; also called muPHID50
Work on B1 yielded an EC50 [1] of 0.428 nM, a Top [1] of 1.65 OD450 and an EC50 [2] of 0.326 µg/mL. It also gave a Top [3] of 268000.

B2: PHD29 (antibody, V domains shown)
VH: QVQLVQSGAEVKKPGASVKVSCKASGYTFTTYWMHWVRQAPGQGLEWIGTIYPGNSDTSFAQKFQGRVTLTRDTSTSTAYMELSSLRSEDTAVYYCTRFYFEDWYFDVWGQGTTVTVSS
VL: DIQMTQSPSSLSASVGDRVTITCRASSSISWLYWFQQKPGKAPKPLIYYTSSLGSGVPSRFSGSGSGTDYTLTISSLQPEDFATYYCQQWHSYPPTFGGGTKVEIK
Work on B2 yielded a Kd [4] of 11.9 nM, a koff [4] of 0.00441 s⁻¹ and a kon [4] of 371000 M⁻¹ s⁻¹.

B3: PHD49-05 (antibody, V domains shown)
VH: QVQLVQSGAEVKKPGSSVKVSCKASGYTFSSHWIQWVRQAPGQGLEWIGAIYPGDDDTIYTQKFQGRATITTDKSTSTAYMELSSLRSEDTAVYYCARNYDYQAWFAYWGQGTLVTVSS
VL: B2 VL with I29V, W31Y, F35Y, Y49L, G54A, H91S, Y93N, P95L, G99Q, V103L
B3 was tested, and the Kd [5] was 0.583 nM, the koff [5] was 0.000174 s⁻¹ and the kon [5] was 299000 M⁻¹ s⁻¹. The “NFAT IC50” value [6] was 170 nM.

B4: PHD24 (antibody, V domains shown)
VH: B2 VH with F60L
VL: B2 VL with S52T
With B4 the Kd [4] was 11.6 nM, the koff [4] was 0.00518 s⁻¹ and the kon [4] was 446000 M⁻¹ s⁻¹.

B5: PHD48-08 (antibody, IgG4, V domains shown)
VH: B2 VH with T58S, F60N, R72A, F101Y
VL: B2 VL with I29V, W31Y, Y49R, S52N, G54A, W90Y
Work on B5 yielded a Kd [7] of 2.77 nM, a koff [7] of 0.00045 s⁻¹ and a kon [7] of 163000 M⁻¹ s⁻¹. For the same binder, the “NFAT IC50” value [6] was 188 nM, the Kd [8] was 1.38 nM and the koff [8] was 0.000331 s⁻¹. The kon [8] was 240000 M⁻¹ s⁻¹.

B6: PHD49-11 (antibody, IgG4, V domains shown)
VH: B3 VH with H32Y, I34M, Q65K, T72A
VL: DIQMTQSPSSLSASVGDRVTITCRASSSVSYLYWYQQKPGKAPKPWIYLTSNLASGVPSRFSGSGSGTDYTLTISSLQPEDFATYYCQQWSSNPLTFGQGTKLEIK
For B6, the “NFAT IC50” value [6] was 269 nM, the Kd [8] was 10.6 nM and the koff [8] was 0.00207 s⁻¹. The kon [8] was 196000 M⁻¹ s⁻¹.

B7: PHD49 (antibody, V domains shown)
VH: B3 VH with Y27F, H32Y, P53T, D56G, K74E, D101H, A107D
VL: B6 VL with W46L, N52S
B7 gave a Kd [5] of 0.174 nM, a koff [5] of 5.21e-05 s⁻¹ and a kon [5] of 300000 M⁻¹ s⁻¹. For the same binder, the “NFAT IC50” value [6] was 266 nM.

B8: PHD25 (antibody, V domains shown)
VH: B2 VH
VL: B2 VL with S52T
For B8, the Kd [4] was 12.3 nM, the koff [4] was 0.00471 s⁻¹ and the kon [4] was 383000 M⁻¹ s⁻¹.

B9: PHD48 (antibody, V domains shown)
VH: B2 VH with T58S, F60N, F101Y
VL: B2 VL with I29V, W31Y, Y49R, S52N, G54A, W90Y
notes: also called full-length PHD48 antibody
For B9, the Kd [7] was 1.87 nM, the koff [7] was 0.000413 s⁻¹ and the kon [7] was 220000 M⁻¹ s⁻¹. The “NFAT IC50” value [6] was 66.5 nM.

B10: PHD30 (antibody, V domains shown)
VH: B2 VH with T31E, T58S, F101Y
VL: B2 VL with W31Y, Y49R, W90Y
Binder B10 has a Kd [4] of 7.23 nM, a koff [4] of 0.00351 s⁻¹ and a kon [4] of 486000 M⁻¹ s⁻¹.

B11: PHD22 (antibody, V domains shown)
VH: B2 VH with T31E, F60Y
VL: B2 VL with S52T
For B11, the Kd [4] was 23.8 nM, the koff [4] was 0.0113 s⁻¹ and the kon [4] was 473000 M⁻¹ s⁻¹.

B12: PHD26 (antibody, V domains shown)
VH: B2 VH with T31E, F60Y
VL: B2 VL
Work on B12 yielded a Kd [4] of 16.6 nM, a koff [4] of 0.00811 s⁻¹ and a kon [4] of 490000 M⁻¹ s⁻¹.

B13: PHD49-21 (antibody, V domains shown)
VH: B3 VH with Y27F, H32Y, P53T, D56G, K74E, D101H, A107D
VL: B6 VL with W46L, N52D
For B13, the Kd [5] was 0.259 nM, the koff [5] was 9.51e-05 s⁻¹ and the kon [5] was 367000 M⁻¹ s⁻¹. For the same binder, the “NFAT IC50” value [6] was 124 nM.

B14: PHD28 (antibody, V domains shown)
VH: B2 VH with F60L
VL: B2 VL
Work on B14 yielded a Kd [4] of 18.4 nM, a koff [4] of 0.00764 s⁻¹ and a kon [4] of 415000 M⁻¹ s⁻¹.

B15: muPHD48 (antibody, V domains shown)
VH: EVQLQQSGTVLARPGASVKMSCKASGYSFTTYWMHWVKQRPGQGLEWIGTIYPGNSDSSNNQKFKGKAKLTAVTSASTAYMELSSLTNEDSAVYYCTRFYYEDWYFDVWGAGTTVTVSS
VL: QIVLTQSPAIMSASPGEKVTISCSASSSVSYMYWFQQKPGSSPKPWIYRTSNLASGVPARFSGSGSGTSYSLTISSMEAEDAATYYCQQYHSYPPTFGGGTKLEIK
notes: Mouse hybridoma monoclonal antibody
With B15 the “IC50 in NFAT antagonistic assay” value [9] was 0.411 nM, the EC50 [1] was 0.37 nM and the Top [1] was 2.16 OD450. For the same binder, the EC50 [2] was 0.341 µg/mL, the Top [3] was 239000 and the “Top; inhibition of NGF-induced TrkA activation in TrkA-NFAT-bla CHO-K1 reporter cells” value [10] was 0.862 Response Ratio.

Reference: patent US20240002516A1 (4B TECHNOLOGIES SUZHOU, published 2024)
